According to paper PMC11480844 (2024):

B1: H2-Kb / Ed16-1 (parent complex)
chain 1: GEQVEQRPPHLSVREGDSAVITCTYTDPNSYYFFWYKQEPGASLQLLMKVFSSTEINEGQGFTVLLNKKDKRLSLNLTAAHPGDSAAYFCAVSGSNNRIFFGDGTQLVVKP
chain 2: EAAVTQSPRSKVAVTGGKVTLSCHQTNNHDYMYWYRQDTGHGLRLIHYSYVADSTEKGDIPDGYKASRPSQENFSLILELASLSQTAVYFCASRTGTDYTFGSGTRLLVI
chain 3: not shown
chain 4: IQKTPQIQVYSRHPPENGKPNILNCYVTQFHPPHIEIQMLKNGKKIPKVEMSDMSFSKDWSFYILAHTEFTPTETDTYACRVKHDSMAEPKTVYWDRDM
chain 5: SIINFEKL
B2: H2-Kb / Ed10 (parent complex)
chain 1: GEQVEQRPPHLSVREGDSAFIICTYTDSATAYFYWYKQEPGAGLQLLMSVFSNVDRKEEQGLTVLLNKKDKRLSLNLTAAHPGDSAVYFCAVRGTGYQNFYFGKGTSLTVIP
chain 2: AQTIHQWPVAEIKAVGSPLSLGCTIKGKSSPNLYWYWQATGGTLQQLFYSITVGQVESVVQLNLSASRPKDDQFILSTEKLLLSHSGFYLCAWSPGYEQYFGPGTRLTVL
chain 3: not shown
chain 4: B1 chain 4
chain 5: SIINFEKL

Variants of: B1
Experiment: % of reporter cells activated (NFAT-GFP), raw
Also: test concentration or dose not given here.

Row | Variant | ratio to parent
1 | chain 5 S1D | 0.0292
2 | chain 5 L8K | 0.951

Variants of: B2
Experiment: % of reporter cells activated (NFAT-GFP), raw

Row | Variant | ratio to parent
3 | chain 5 N4F | 0.0998
4 | chain 5 S1C | 0.759
5 | chain 5 S1N | 0.524
6 | chain 5 L8W | 0.702
7 | chain 5 I3F | 0.713
8 | chain 5 I3S | 0.873
9 | chain 5 I3W | 0.739
10 | chain 5 E6L | 0.0597
11 | chain 5 F5A | 0.912
12 | chain 5 N4H | 0.777
13 | chain 5 L8M | 0.813
14 | chain 5 I2K | 0.876
15 | chain 5 I2Q | 0.914
16 | chain 5 N4W | 0.424
17 | chain 5 I2F | 0.941
18 | chain 5 K7H | 0.183
19 | chain 5 K7N | 0.726
20 | chain 5 F5P | 0.437
21 | chain 5 L8H | 0.916
22 | chain 5 K7E | 0.00697
23 | chain 5 N4S | 0.33
24 | chain 5 E6Q | 0.19
25 | chain 5 S1V | 0.913
26 | chain 5 L8E | 0.721
27 | chain 5 L8V | 0.721

Row | Variant | ratio to parent
28 | chain 5 N4I | 0.0807
29 | chain 5 N4C | 0.13
30 | chain 5 I2R | 0.712
31 | chain 5 I2E | 0.966
32 | chain 5 I2L | 0.955
33 | chain 5 N4M | 0.127
34 | chain 5 K7Y | 0.402
35 | chain 5 I3R | 0.631
36 | chain 5 F5L | 0.925
37 | chain 5 N4Q | 0.189
38 | chain 5 F5C | 0.857
39 | chain 5 S1G | 0.978
40 | chain 5 S1E | 0.888
41 | chain 5 S1P | 0.946
42 | chain 5 K7S | 0.744
43 | chain 5 I3M | 0.913
44 | chain 5 E6M | 0.384
45 | chain 5 I2M | 0.933
46 | chain 5 L8N | 0.862
47 | chain 5 S1M | 1.02
48 | chain 5 E6V | 0.00689
49 | chain 5 S1K | 0.841
50 | chain 5 E6T | 0.0117
51 | chain 5 N4R | 0.104
52 | chain 5 I2N | 0.841

Row | Variant | ratio to parent
53 | chain 5 F5D | 0.897
54 | chain 5 N4T | 0.0278
55 | chain 5 K7R | 0.668
56 | chain 5 N4P | 0.551
57 | chain 5 E6I | 0.00258
58 | chain 5 I3L | 0.972
59 | chain 5 F5W | 0.659
60 | chain 5 L8A | 0.858
61 | chain 5 L8S | 0.74
62 | chain 5 I2D | 0.977
63 | chain 5 N4E | 0.178
64 | chain 5 I2S | 0.988
65 | chain 5 I2A | 1.02
66 | chain 5 F5K | 0.688
67 | chain 5 S1I | 0.814
68 | chain 5 K7Q | 0.0405
69 | chain 5 I3C | 0.914
70 | chain 5 F5T | 0.758
71 | chain 5 L8Y | 0.956
72 | chain 5 L8P | 0.885
73 | chain 5 I3G | 0.724
74 | chain 5 I3P | 0.933
75 | chain 5 N4D | 0.847
76 | chain 5 K7M | 0.28
77 | chain 5 L8R | 0.949

Row | Variant | ratio to parent
78 | chain 5 F5Q | 0.879
79 | chain 5 F5H | 0.876
80 | chain 5 E6K | 0.878
81 | chain 5 S1Y | 1
82 | chain 5 I3A | 0.96
83 | chain 5 I2Y | 0.898
84 | chain 5 I2C | 0.907
85 | chain 5 S1R | 0.72
86 | chain 5 N4K | 0.342
87 | chain 5 L8C | 0.921
88 | chain 5 L8F | 0.838
89 | chain 5 I3N | 0.683
90 | chain 5 L8G | 0.937
91 | chain 5 I2T | 1.02
92 | chain 5 K7W | 0.601
93 | chain 5 F5M | 0.958
94 | chain 5 F5E | 0.78
95 | chain 5 E6N | 0.0352
96 | chain 5 N4V | 0.00517
97 | chain 5 I2P | 0.973
98 | chain 5 I3V | 0.927
99 | chain 5 K7P | 0.685
100 | chain 5 E6D | 0.557
101 | chain 5 E6Y | 0.503
102 | chain 5 E6R | 0.0435

Row | Variant | ratio to parent
103 | chain 5 F5S | 0.764
104 | chain 5 I3K | 0.828
105 | chain 5 N4A | 0.353
106 | chain 5 F5Y | 1.03
107 | chain 5 N4L | 0.728
108 | chain 5 L8T | 0.81
109 | chain 5 I2G | 0.939
110 | chain 5 I3E | 0.916
111 | chain 5 I2H | 0.915
112 | chain 5 E6A | 0.0198
113 | chain 5 F5I | 0.815
114 | chain 5 K7D | 0.355
115 | chain 5 L8D | 0.803
116 | chain 5 K7V | 0.563
117 | chain 5 E6F | 0.0734
118 | chain 5 K7C | 0.143
119 | chain 5 I3Y | 0.368
120 | chain 5 K7A | 0.495
121 | chain 5 K7L | 0.461
122 | chain 5 K7F | 0.184
123 | chain 5 K7I | 0.00197
124 | chain 5 L8I | 0.864
125 | chain 5 I3D | 0.691
126 | chain 5 I3H | 0.828
127 | chain 5 F5G | 0.581

Row | Variant | ratio to parent
128 | chain 5 L8K | 0.88
129 | chain 5 N4Y | 0.354
130 | chain 5 N4G | 0.0998
131 | chain 5 F5V | 0.775
132 | chain 5 I3T | 0.829
133 | chain 5 S1L | 0.914
134 | chain 5 E6C | 0.00556
135 | chain 5 I3Q | 0.826
136 | chain 5 S1T | 1.01
137 | chain 5 K7G | 0.79
138 | chain 5 S1A | 0.977
139 | chain 5 S1Q | 0.931
140 | chain 5 I2V | 0.962
141 | chain 5 F5N | 0.711
142 | chain 5 S1F | 0.726
143 | chain 5 S1D | 0.938
144 | chain 5 L8Q | 0.897
145 | chain 5 F5R | 0.815
146 | chain 5 K7T | 0.102
147 | chain 5 E6H | 0.377
148 | chain 5 E6W | 0.00924
149 | chain 5 E6P | 0.045
150 | chain 5 I2W | 0.751
